According to IntAct's records for PubMed 28424519:

B1: Transcription regulatory protein SNF2 (Saccharomyces cerevisiae), P22082 (parent)
chain: MNIPQRQFSNEEVNRCYLRWQHLRNEHGMNAPSVPEFIYLTKVLQFAAKQRQELQMQRQQQGISGSQQNIVPNSSDQAELPNNASSHISASASPHLAPNMQLNGNETFSTSAHQSPIMQTQMPLNSNGGNNMLPQRQSSVGSLNATNFSPTPANNGENAAEKPDNSNHNNLNLNNSELQPQNRSLQEHNIQDSNVMPGSQINSPMPQQAQMQQAQFQAQQAQQAQQAQQAQQAQARLQQGRRLPMTMFTAEQSELLKAQITSLKCLVNRKPIPFEFQAVIQKSINHPPDFKRMLLSLSEFARRRQPTDQNNQSNLNGGNNTQQPGTNSHYNNTNTDNVSGLTRNAPLDSKDENFASVSPAGPSSVHNAKNGTLDKNSQTVSGTPITQTESKKEENETISNVAKTAPNSNKTHTEQNNPPKPQKPVPLNVLQDQYKEGIKVVDIDDPDMMVDSFTMPNISHSNIDYQTLLANSDHAKFTIEPGVLPVGIDTHTATDIYQTLIALNLDTTVNDCLDKLLNDECTESTRENALYDYYALQLLPLQKAVRGHVLQFEWHQNSLLTNTHPNFLSKIRNINVQDALLTNQLYKNHELLKLERKKTEAVARLKSMNKSAINQYNRRQDKKNKRLKFGHRLIATHTNLERDEQKRAEKKAKERLQALKANDEEAYIKLLDQTKDTRITHLLRQTNAFLDSLTRAVKDQQKYTKEMIDSHIKEASEEVDDLSMVPKMKDEEYDDDDDNSNVDYYNVAHRIKEDIKKQPSILVGGTLKDYQIKGLQWMVSLFNNHLNGILADEMGLGKTIQTISLLTYLYEMKNIRGPYLVIVPLSTLSNWSSEFAKWAPTLRTISFKGSPNERKAKQAKIRAGEFDVVLTTFEYIIKERALLSKVKWVHMIIDEGHRMKNAQSKLSLTLNTHYHADYRLILTGTPLQNNLPELWALLNFVLPKIFNSVKSFDEWFNTPFANTGGQDKIELSEEETLLVIRRLHKVLRPFLLRRLKKDVEKELPDKVEKVVKCKMSALQQIMYQQMLKYRRLFIGDQNNKKMVGLRGFNNQIMQLKKICNHPFVFEEVEDQINPTRETNDDIWRVAGKFELLDRILPKLKATGHRVLIFFQMTQIMDIMEDFLRYINIKYLRLDGHTKSDERSELLRLFNAPDSEYLCFILSTRAGGLGLNLQTADTVIIFDTDWNPHQDLQAQDRAHRIGQKNEVRILRLITTNSVEEVILERAYKKLDIDGKVIQAGKFDNKSTSEEQEALLRSLLDAEEERRKKRESGVEEEEELKDSEINEILARNDEEMAVLTRMDEDRSKKEEELGVKSRLLEKSELPDIYSRDIGAELKREESESAAVYNGRGARERKTATYNDNMSEEQWLRQFEVSDDEKNDKQARKQRTKKEDKSEAIDGNGEIKGENIDADNDGPRINNISAEDRADTDLAMNDDDFLSKKRKAGRPRGRPKKVKLEGSENSEPPALESSPVTGDNSPSEDFMDIPKPRTAGKTSVKSARTSTRGRGRGRGRGRGRGRGRGRPPKARNGLDYVRTPAAATSPIDIREKVAKQALDLYHFALNYENEAGRKLSDIFLSKPSKALYPDYYMIIKYPVAFDNINTHIETLAYNSLKETLQDFHLIFSNARIYNTEGSVVYEDSLELEKVVTKKYCEIMGDNSQLDFTEFDEQYGTRPLVLPPVVTSSVAESFTDEADSSMTEASV

Variants of: B1
Settings: with h4_yeast HHF1, P02309

| effect of a mutation on the interaction | Variant |
| --- | --- |
| disrupting interaction | E1069K;D1121K |
